The results in this text go back to US6780971B2, “Compositions for inhibiting the aggregation pathway of α-synuclein” (Panacea Pharmaceuticals, Inc., priority 2000, dated 2004).

The target of data set [1] is T1, C-terminal (approx. amino acids 113-140) of α-synuclein (Homo sapiens, UniProt P37840).
T1 construct: The peptides were selected using the α-synuclein 121-131 and 61-87 peptides as the bait
Put plainly: Phage display selection for binding to C-terminal portion of α-synuclein. The settings on record: for binding to the C-terminal portion of α-synuclein: phage display. The source says:
(§1) Such peptides can be found, for instance, by using phage display to select for those phage expressing a peptide on their surface that binds to α-synuclein, and determining what the peptide is. The inhibitory effect of that peptide, or any peptide for that matter, can also be tested to determine its usefulness as an agent for treating a Lewy body disease or synucleinopathy by using assays such as those disclosed herein or as disclosed in U.S. Pat. No. 6,184,351, which is incorporated herein by reference. Such peptides have been selected for their ability to bind to the C-terminal (approx. amino acids 113-140), and the NAC portion (approx. amino acids 61-87) of α-synuclein, because this region is thought to be involved with the aggregation process. Several peptides that bind to the C-terminal portion are as follows (all peptides are given in […] order): (1) WRQTRKD (SEQ ID NO: 1); (2) HYAKNPI (SEQ ID NO: 2); (3) ATINKSL (SEQ ID NO: 3); (4) RRRGMAI (SEQ ID NO: 4); (5) THRLPSR (SEQ ID NO: 5); and (6) TKHGPRK (SEQ ID NO: 6). Several peptides that bind to the NAC portion are: (1) SLKRLPK (SEQ ID NO: 7); (2) RLRGRNQ (SEQ ID NO: 8); (3) WPFHHHR (SEQ ID NO: 9); (4) HLYHHKT (SEQ ID NO: 10); (5) THIHHPS (SEQ ID NO: 11); and (6) MMMMMRL (SEQ ID NO: 12). […] Most preferred is the peptide SLKRLPK (SEQ ID NO: 7).
(§2) Phage display: Incubating a library of phage that is all identical except for a sequence of 7 amino acids that are presented on the coat and randomly differ from phage to phage. Phage which express a sequence that specifically binds to α-synuclein are then isolated, cloned, and the DNA sequenced to determined the amino acid sequence. The 7 amino acid peptide is then synthesized and tested directly.
(§3) Phage display (phage display kit was from New England Biolabs (Beverly, Mass.)) was used to specifically select for peptides that can inhibit iron binding. […] The peptides were selected using the α-synuclein 121-131 and 61-87 peptides as the bait. One such peptide has the sequence SLKRLPK (SEQ ID NO: 7).

Data set [2] has as its target T2, NAC portion (approx. amino acids 61-87) of α-synuclein (Homo sapiens, UniProt P37840).
T2 construct: The peptides were selected using the α-synuclein 121-131 and 61-87 peptides as the bait
Description: Phage display selection for binding to NAC portion of α-synuclein. The note with it: for binding to the NAC portion of α-synuclein: phage display; for relative binding properties: NAC portion binders.
From the text: as §1, §2, §3

Data set [3] addresses T3, α-synuclein (Homo sapiens, UniProt P37840).
T3 construct: His-6 (cleaved yes); made in house; host or cells: bacteria (IPTG-induced; Pro-Ex His 6 vector)
Description: Tyrosine fluorescence assay of metal binding to α-synuclein. The note with it: wildtype α-synuclein. On the procedure: (§4) Because iron binds to other proteins that form aggregates and iron is known to accumulate in Parkinson's disease, iron might bind directly to α-synuclein. To confirm this hypothesis, the interaction of iron with α-synuclein was tested using tyrosine fluorescence as an indicator of iron binding. […] Fluorescence of tyrosine has been used to monitor binding of metals to β-amyloid [Garzon-Rodriguez W. et al., Bioorg. Med. Chem. Let., 9:2243-2248 (1999), which is hereby incorporated by reference]. A similar approach was taken to analyze binding of iron to α-synuclein. Tyrosine has a fluorescence emission spectrum that has a peak emission of 310 nm when excited at 280 nm, respectively (FIG. 2A). It was observed that binding of iron reduced the fluorescence of the tyrosines in α-synuclein. […] The Hill coefficient was 1.0 (R^2=1.0, P<0.0001), indicating one binding site for iron with no cooperativity (FIGS. 2A & B). α-Synuclein was also tested for binding to other metals, including CuCl2, ZnCl2 and MgCl2. Because the C-terminus of α-synuclein has a region with 7 glutamates and 4 aspartates, which together could chelate iron, we created a deletion construct lacking the last 27 amino acids on α-synuclein and analyzed binding of this construct.
To monitor the binding profiles of Fe(II) and Mg(II) to α-synuclein in vitro we used changes of tyrosine fluorescence. Tyrosine fluorescence is used as an indicator of changes in protein conformation or binding of metals. Excitation of tyrosine at 280 nm elicits fluorescence that peaks at 310 nm for monomeric tyrosine, and at 350-400 nm for tyrosinate or dimeric tyrosine. The fluorescence spectrum of α-synuclein yielded fluorescence peaks at 310 and 400 nm. The peak at 400 nm cannot be explained by the presence of dimeric tyrosine, due to dimerization of α-synuclein, because dimerization of α-synuclein decreases the fluorescence at 400 nm, and tends to eliminate the peak at 400 nm.

Data set [4] concerns the target T4, α-synuclein ΔC1-113 (Homo sapiens, UniProt P37840).
T4 construct: made in house
Description: Tyrosine fluorescence assay of iron binding to C-terminal deletion construct. As to the method:
as §4

The target in data set [5] is T5, A53T α-synuclein (Homo sapiens, UniProt P37840, A53T).
T5 construct: His-6 (cleaved yes); made in house; host or cells: bacteria (IPTG-induced; Pro-Ex His 6 vector)
Put plainly: Tyrosine fluorescence assay of metal binding to A53T α-synuclein. The source says: We also examined how the A53T mutation in human α-synuclein affected binding of iron and magnesium. […] Previous studies have shown that A53T mutation changes the conformation of α-synuclein by increasing its helical content (Polymeropoulos et al., Science, 276:2045-7(1997)). These conformational changes might also reduce binding of magnesium to α-synuclein.

The subject of data set [6] is BE-M17 cells over-expressing α-synuclein. Description: Iron-mediated toxicity in BE-M17 cell lines, MTT assay. The format is cell-based. The note with it: for reduction of LD50 by α-synuclein over-expression: 48 hrs. As to the method: To determine if the conditions that produce α-synuclein aggregation also produce toxicity, the vulnerability of each cell line to iron and/or hydrogen peroxide-mediated toxicity was tested. Each cell line (untransfected, wild type, A53T and A30P a-synuclein) was treated with varying doses of FeCl2, H2O2 or FeCl2+H2O2 and the amount of toxicity was determined by MTT assay. […] Over-expression of A30P or wild type α-synuclein constructs reduced the LD50 values by ˜50%, although the amount of toxicity seen in A30P-expressing cells in response to low levels of iron was generally greater than toxicity seen with wildtype α-synuclein (FIG. 1A). To confirm that over-expression of α-synuclein increased the vulnerability of the neuroblastoma cells to iron, iron-induced toxicity was tested using a LDH assay (FIG. 1B). The LDH assay confirmed that over-expression of the α-synuclein constructs increases iron-induced toxicity (FIG. 1B).
(Tetrazolium assays rely on reduction of a dye to a coloured formazan, in cell work by metabolically active cells.)

In data set [7] the test system is BE-M17 neuroblastoma cells. Put plainly: Iron-induced α-synuclein aggregation in BE-M17 cell lines (fractionation, immunoblot). The format is cell-based, human. The note with it: for formation of large α-synuclein aggregates migrating in the stacking gel: cells over-expressing A30P or wild type α-synuclein, 48 hrs, 10 mM FeCl2 and/or 5-500 μM dopamine. As to the method: Immunoblotting: Cells were harvested with SDS lysis solution (2% SDS, 10 mM Tris, pH 7.4, 2 mM β-glycerol phosphate, 1 μM AEBSF). The amount of protein was determined using the BCA assay (Pierce), […] per lane was run on 14% SDS polyacrylamide gels and transferred to nitrocellulose (200 mAmp, 12 hrs). The nitrocellulose was then incubated 1 hr in 5% milk/PBS, washed, incubated overnight in 1° antibody, washed, then incubated 3 hrs in peroxidase coupled 2° antibody and developed with chemiluminescent reagent (NEN).
Cell fractionation: For cell fractionation the cells were harvested in buffer containing 20 mM Tris, pH 7.4, 2 mM EDTA, 0.25 M sucrose, and 20 μg/mL protease inhibitor cocktail (Sigma). The cell lysate was sonicated and centrifuged at 100,000×g at 4° C. for 1 hr.
To test whether A53T and A30P mutations in α-synuclein increase the tendency of α-synuclein to aggregate in neurons, α-synuclein aggregation was determined in human BE-M17 neuroblastoma cells that were stably transfected with wild type, A53T or A30P α-synuclein. Each cell line was treated for 48 hours with freshly prepared FeCl2 (1 or 10 mM), then harvested, homogenized and fractionated into membrane and cytoplasmic components. The membrane (5 μg/lane) and cytoplasmic (20 μg/lane) components were immunoblotted with monoclonal anti-α-synuclein antibody.
To determine the effect of increasing the duration of exposure to iron on aggregation of α-synuclein at lower doses of iron, BE-M17 cells which are over-expressing A53T or wildtype α-synuclein were exposed to FeCl2 for 4 days. Under these conditions, doses as low as 0.3 μM FeCl2 produced detectable aggregation of α-synuclein in cells expressing A53T α-synuclein.
Neurol. 57:793-796 (2000)]. If so, adding free radical generators, such as hydrogen peroxide or dopamine, along with the iron might increase the amount of α-synuclein aggregation. To further determine that oxidation enhanced iron-induced aggregation of α-synuclein, BE-M17 cells over-expressing A30P or wildtype α-synuclein were treated for 48 hrs with 10 mM FeCl2 plus varying concentrations of dopamine (0.5, 50, and 500 μM).

Data set [8] deals with T3, α-synuclein. Put plainly: Phage ELISA binding to α-synuclein absorbed to plastic well. As to the method:
Bound phage was detected by adding peroxidase coupled anti-phage antibody, incubating 1 hr, washing 5 times and detecting signal using the peroxidase substrate ABTS. Bound phage produces a dark green signal that is measured as optical density with a spectrophotometer. Using these conditions, the phage containing the SLKRLPK (SEQ ID NO: 7) peptide gave OD's of 0.882, 0.844, and 0.480 at dilutions of 1:10, 1:100, and 1:1000, respectively.
A general note: An ELISA detects its analyte on a solid surface through an enzyme-linked reagent.

As to WRQTRKD (listed as Homo sapiens), the “binding to the C-terminal portion of α-synuclein” value (“binding to the C-terminal portion” for short) in data set [1] is “bind”.
On to WPFHHHR (listed as Homo sapiens), for which the “binding to the NAC portion of α-synuclein” value (“binding to the NAC portion” below) in data set [2] was “bind”.
The term IC50 denotes the point on the concentration scale where inhibition reaches its midpoint. As to `[Cl][Fe][Cl]` [FeCl2], the “Hill coefficient of iron binding curve” value in data set [3] was determined as 1.0. Besides, the IC50 in data set [3] (excitation 280 nm, sigmoidal fit, read-out: IC50 of quenching of α-synuclein tyrosine fluorescence (iron binding)) amounted to 173 µM; in data set [4] (construct lacking the last 27 amino acids), 726 µM. Moreover, the “reduction in iron binding versus wildtype” value in data set [4] (ΔC1-113 versus wildtype α-synuclein) is listed as more than 4 fold. Moreover, the “effect of A53T mutation on binding to α-synuclein” value in data set [5] was “did not change the apparent affinity”. The “increase in vulnerability to induced toxicity in cells over-expressing α-synuclein” value in data set [6] was not above 4 fold. Further, the “reduction of LD50 by α-synuclein over-expression” value in data set [6] (A30P or wild type α-synuclein over-expressing cells versus untransfected) was approximately 50%; in data set [6] (A53T α-synuclein over-expressing cells versus untransfected), “over 75%”. Besides, the α-synuclein aggregate formation result in data set [7] (A53T-expressing cell line, 1 or 10 mM, 48 hours, membrane fraction) is “induced dose-dependent formation of heterogeneous high molecular weight α-synuclein aggregates”; in data set [7] (untransfected, wildtype and A30P cell lines, 48 hr) it was “did not induce α-synuclein aggregates”. Further, the “lowest dose producing detectable aggregation of α-synuclein” value in data set [7] (cells expressing A53T α-synuclein, 4 days) is 0.3 µM. In data set [7], the “formation of large α-synuclein aggregates migrating in the stacking gel” value was “did not induce any aggregation”.
Turning to ATINKSL (listed as Homo sapiens), the “binding to the C-terminal portion” value in data set [1] is on record as “bind”.
Same read-out and setting: the result for HYAKNPI (listed as Homo sapiens) reads “bind”.
Consider THRLPSR (listed as Homo sapiens), for which the relative binding properties result in data set [1] (C-terminal portion binder) is reported as “stronger binding properties”. The “binding to the C-terminal portion” value in data set [1] is “bind”.
In the case of TKHGPRK (listed as Homo sapiens), the “binding to the C-terminal portion” value in data set [1] is “bind”.
Turning to MMMMMRL (listed as Homo sapiens), in data set [2], the relative binding properties entry is reported as “stronger binding properties” and the “binding to the NAC portion” value was “bind”.
For HLYHHKT (listed as Homo sapiens), the “binding to the NAC portion” value in data set [2] was “bind”.
For THIHHPS (listed as Homo sapiens), in data set [2], the relative binding properties result is reported as “stronger binding properties” and the “binding to the NAC portion” value is on record as “bind”.
For RRRGMAI (listed as Homo sapiens), the “binding to the C-terminal portion” value in data set [1] was “bind”.
For SLKRLPK (listed as Homo sapiens), the “OD of bound phage” value in data set [8] (phage dilution 1:10) is 0.882; in data set [8] (phage dilution 1:100), 0.844; in data set [8] (phage dilution 1:1000), 0.480. Besides, the “binding of phage to α-synuclein by ELISA” value in data set [8] (phage expressing the sequence) is “particularly strong binding”. Also, the relative binding properties entry in data set [2] was “stronger binding properties”. The “binding to the NAC portion” value in data set [2] was “bind”.
Regarding RLRGRNQ (listed as Homo sapiens), in data set [2], the “binding to the NAC portion” value is “bind”.
Turning to `NCCc1ccc(O)c(O)c1` [dopamine], the “formation of large α-synuclein aggregates migrating in the stacking gel” value in data set [7] is recorded as “did not induce formation of large α-synuclein aggregates”.
